Experimental data from patent publication US20060257938A1, “Method of screening for drugs that block ligand binding to a lipid binding protein” (priority 2005, published 2006).
Numbering of substitutions follows the chain as printed. In names and notes the source's numbering stands.

B1: L2P8A5: FABP probe, substitutions M18V G31A F55W A73W vs SEQ ID NO: 2 (protein, listed as Rattus norvegicus)
chain: AFDGTWKVDRNENYEKFVEKMGINVVKRKLAAHDNLKLTITQEGNKFTVKESSNWRNIDVVFELGVDFAYSLWDGTELTGTWTMEGNKLVGKFKRVDNGKELIAVREISGNELIQTYTYEGVEAKRIFKKE
modifications: PEPTIDE (1)...(131) wild-type rat intestinal fatty acid binding protein
B2: L2P17H10: FABP probe, substitutions M18G G31F A73L vs SEQ ID NO: 2 (protein, listed as Rattus norvegicus)
chain: B1 chain with V18G, A31F, W55F, W73L
modifications: PEPTIDE (1)...(131) wild-type rat intestinal fatty acid binding protein
B3: L2P8A6: FABP probe, substitutions M18I G31V F55V A73V vs SEQ ID NO: 2 (protein, listed as Rattus norvegicus)
chain: B1 chain with V18I, A31V, W55V, W73V
modifications: PEPTIDE (1)...(131) wild-type rat intestinal fatty acid binding protein
B4: L2P22G6: FABP probe, substitutions M18I G31Y A73G vs SEQ ID NO: 2 (protein, listed as Rattus norvegicus)
chain: B1 chain with V18I, A31Y, W55F, W73G
modifications: PEPTIDE (1)...(131) wild-type rat intestinal fatty acid binding protein
B5: L2P23A4: FABP probe, substitutions M18V G31I F55L A73V vs SEQ ID NO: 2 (protein, listed as Rattus norvegicus)
chain: B1 chain with A31I, W55L, W73V
modifications: PEPTIDE (1)...(131) wild-type rat intestinal fatty acid binding protein
B6: L2P12C5: FABP probe, substitutions M18I G31I F55M A73I vs SEQ ID NO: 2 (protein, listed as Rattus norvegicus)
chain: B1 chain with V18I, A31I, W55M, W73I
modifications: PEPTIDE (1)...(131) wild-type rat intestinal fatty acid binding protein
B7: L2P21C1: FABP probe, substitutions M18I G31Y A73V vs SEQ ID NO: 2 (protein, listed as Rattus norvegicus)
chain: B1 chain with V18I, A31Y, W55F, W73V
modifications: PEPTIDE (1)...(131) wild-type rat intestinal fatty acid binding protein

test: Probe fluorescence ratio response to arachidonic acid relative to ADIFAB2; format: binding; settings: Table 5; Arachidonic acid
How it was run: (§1)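 Fluorescently labeled rat intestinal FABP variants were read at two emission wavelengths, near the unbound maximum (about 420 to 480 nm) and the FFA-bound maximum (about 495 to 580 nm). R = Fλ1/Fλ2 after subtracting probe-free intensity; ΔR = R+agent − R0, normalized to ADIFAB2 (rI-FABP-L72A).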

Row | Molecule | ΔR/DRAΔ2 AA
1 | B1 | 1.1
2 | B2 | 1.8
3 | B3 | 0.6
4 | B4 | 1.8
5 | B5 | 2.8
6 | B6 | 1.3
7 | B7 | 2.8

test: Probe fluorescence ratio response to linolenic acid relative to ADIFAB2; format: binding; settings: Table 5
How it was run: as §1

Row | Molecule | ΔR/DRAΔ2 LNA
8 | B1 | 1.9
9 | B2 | 1.2
10 | B3 | 1.2
11 | B4 | 2.7
12 | B5 | 2.6
13 | B6 | 1.7
14 | B7 | 3.1

test: Probe fluorescence ratio response to linoleic acid relative to ADIFAB2; format: binding; settings: Table 5
How it was run: as §1

Row | Molecule | ΔR/DRAΔ2 LA
15 | B1 | 1.6
16 | B2 | 1.5
17 | B3 | 0.8
18 | B4 | 2.6
19 | B5 | 3.1
20 | B6 | 1.5
21 | B7 | 3.4

test: Probe fluorescence ratio response to oleic acid relative to ADIFAB2; format: binding; settings: Table 5
How it was run: as §1

Row | Molecule | ΔR/DRAΔ2 OA
22 | B1 | 0.9
23 | B2 | 1.4
24 | B3 | 0.4
25 | B4 | 1.6
26 | B5 | 2.3
27 | B6 | 0.8
28 | B7 | 2.7

test: Probe fluorescence ratio response to palmitic acid relative to ADIFAB2; format: binding; settings: Table 5
How it was run: as §1

Row | Molecule | ΔR/DRAΔ2 PA
29 | B1 | 1.5
30 | B2 | 1.0
31 | B3 | 1.0
32 | B4 | 1.9
33 | B5 | 1.9
34 | B6 | 1.5
35 | B7 | 2.0

test: Probe fluorescence ratio response to palmitoleic acid relative to ADIFAB2; format: binding; settings: Table 5
How it was run: as §1

Row | Molecule | ΔR/DRAΔ2 POA
36 | B1 | 2.0
37 | B2 | 1.2
38 | B3 | 1.3
39 | B4 | 2.6
40 | B5 | 2.8
41 | B6 | 1.9
42 | B7 | 2.9

test: Probe fluorescence ratio response to stearic acid relative to ADIFAB2; format: binding; settings: Table 5
How it was run: as §1

Row | Molecule | ΔR/DRAΔ2 SA
43 | B1 | 0.4
44 | B2 | 1.7
45 | B3 | 0.2
46 | B4 | 0.9
47 | B5 | 1.2
48 | B6 | 0.4
49 | B7 | 1.6
